Here are results for one molecule from patent publication CN114773460A.

This assay concerns the target 轮状病毒重组蛋白VP8 (recombinant rotavirus VP8, part of the spike protein VP4) (轮状病毒 (rotavirus; strain not stated)). In words: ELISA, antigen coated at 10 μg/mL, Rot1 in 2-fold dilutions from 10 μg/mL (16 points), anti-His detection, OD450.

B1: 纳米抗体Rot1 (nanobody Rot1, fusion protein with C-terminal histidine tag and human influenza hemaggluti (VHH)
VHH: QVQLQESGGGLVQAGGSLRLSCTASGYRFSNLAVGWFRQAPGQEREAVAVIFVGGITYYADSVKGRFTISRDNAKNTVTLQMNNLKPEDTAIYYCAAYVHMYCASQTITRYDYWGQGTQVTVSS
For the molecule B1, the EC50 was 0.195 mg/L.
